Molecular target: FOXO3a (UniProt O43524)
Assay: IP of FOXO3a, anti-Flag blot for SirT6
Conditions: reference: WT-SirT6; sites S338

**Q.** How did the “binding against the reference” value turn out when SirT6 (from UniProt Q8N6T7) S338A was run?
**A.** lost
